Residue numbers refer to the chain shown, from its start.
Columns and labels:
[1] = substrate: CN(CC(=O)O)C(=N)N; test: purified protein, by the assay type; conditions: other: 37° C., 0.1 mole/liter Tris-HCl (pH 8.0), optimum test conditions, wild type enzyme
[2] = substrate: CN(CC(=O)O)C(=N)N; test: purified protein, by the assay type; type: biochemical, Pseudomonas putida; conditions: other: 37° C., 0.1 mole/liter Tris-HCl (pH 8.0), optimum test conditions, mutant 109 = Val
From the text: (optimum test conditions)

B1: Pseudomonas putida creatine amidinohydrolase, wild type, from Escherichia coli DSM 3143 (pBT 2a-1, DSM 3148P) (Pseudomonas putida) (protein)
chain: MQMPKTLRIRNGDKVRSTFSAQEYANRQARLRAHLAAENIDAAIFTSYHNINYYSDFLYCSFGRPYALVVTEDDVISISANIDGGQPWRRTVGTDNIVYTDWQRDNYFAAIQQALPKARRIGIEHDHLNLQNRDKLAARYPDAELVDVAAACMRMRMIKSAEEHVMIRHGARIADIGGAAVVEALGDQVPEYEVALHATQAMVRAIADTFEDVELMDTWTWFQSGINTDGAHNPVTTRKVNKGDILSLNCFPMIAGYYTALERTLFLDHCSDDHLRLWQVNVEVHEAGLKLIKPGARCSDIARELNEIFLKHDVLQYRTFGYGHSFGTLSHYYGREAGLELREDIDTVLEPGMVVSMEPMIMLPEGLPGAGGYREHDILIVNENGAENITKFPYGPEKNIIRK
B1 gave a Km [1] of 25 mM.

B2: Pseudomonas putida creatine amidinohydrolase mutant (amino acid 109 = Val; Ala109Val), from Escherichia coli DSM 4105 (pBT 109, DSM 4108P) (Pseudomonas putida; … (protein)
chain: B1 chain with A109V
notes: made in house; host or cells: Escherichia coli DSM 4105 (plasmid pBT 109, DSM 4108P)
In the case of B2, the Km [2] is reported as 20 mM.

B3: Pseudomonas putida creatine amidinohydrolase mutant (Ala109Val and Val355Met), from Escherichia coli DSM 4106 (pBT 119, DSM 4107P) (Pseudomonas putida; … (protein)
chain: B1 chain with A109V, V355M
notes: made in house; host or cells: Escherichia coli DSM 4106 (plasmid pBT 119, DSM 4107P)
B3 showed a Km ([2]; 355 = Met) of 16 mM.
